Each block holds one binder with its values, some of them ahead of it. Numbered stars: 1 amine (or outer) side, 2 acyl side, 3 side chain; on linkers, the order of the positions; unused ones are H or OH. Bridge positions count the residues as written; N and C are the ends. Side chains are listed from the residue outwards. Ends that are not written are not given here. * marks the point of attachment. C20 diacid = O=C(O)CCCCCCCCCCCCCCCCCCC(=O)*; γGlu = O=C(O)[C@H](CCC(=O)[*:2])N[*:1]; AEEA = NCCOCCOCC(=O)O
Target: T1, human calcitonin receptor (human, UniProt P30988 25-474)
T1 sequence (looked up): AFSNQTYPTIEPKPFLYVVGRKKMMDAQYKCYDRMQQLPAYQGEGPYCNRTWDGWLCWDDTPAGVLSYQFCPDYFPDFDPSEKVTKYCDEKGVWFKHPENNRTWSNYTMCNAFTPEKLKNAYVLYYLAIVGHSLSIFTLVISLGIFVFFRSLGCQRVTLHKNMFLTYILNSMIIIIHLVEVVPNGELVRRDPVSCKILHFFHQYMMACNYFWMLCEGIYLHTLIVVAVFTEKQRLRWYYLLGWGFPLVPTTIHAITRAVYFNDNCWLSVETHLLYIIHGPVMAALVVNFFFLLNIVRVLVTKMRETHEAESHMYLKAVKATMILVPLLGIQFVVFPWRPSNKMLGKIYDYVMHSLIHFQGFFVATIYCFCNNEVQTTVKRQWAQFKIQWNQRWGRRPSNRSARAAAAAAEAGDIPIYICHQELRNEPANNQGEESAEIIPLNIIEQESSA
Test: cell-based or functional assay

- hCTR funct. EC50: 9.33 nM
B3: N^ε1-[(4S)-4-carboxy-4-(19-carboxynonadecanoylamino)butanoyl]-[Arg14,Arg17,Pro21,Pro27,Pro34]-h-amylin (peptide)
peptide: K([γGlu-C20 diacid])CNTATCATQRLARFLRHSSPNFGAIPSSTNVGPNTY-NH2
modifications: disulfide 2-7; N-terminus assumed
SMILES: CC[C@H](C)[C@H](NC(=O)[C@H](C)NC(=O)CNC(=O)[C@H](Cc1ccccc1)NC(=O)[C@H](CC(N)=O)NC(=O)[C@@H]1CCCN1C(=O)[C@H](CO)NC(=O)[C@H](CO)NC(=O)[C@H](Cc1c[nH]cn1)NC(=O)[C@H](CCCNC(=N)N)NC(=O)[C@H](CC(C)C)NC(=O)[C@H](Cc1ccccc1)NC(=O)[C@H](CCCNC(=N)N)NC(=O)[C@H](C)NC(=O)[C@H](CC(C)C)NC(=O)[C@H](CCCNC(=N)N)NC(=O)[C@H](CCC(N)=O)NC(=O)[C@@H](NC(=O)[C@H](C)NC(=O)[C@@H]1CSSC[C@H](NC(=O)[C@@H](N)CCCCNC(=O)CC[C@H](NC(=O)CCCCCCCCCCCCCCCCCCC(=O)O)C(=O)O)C(=O)N[C@@H](CC(N)=O)C(=O)N[C@@H]([C@@H](C)O)C(=O)N[C@@H](C)C(=O)N[C@@H]([C@@H](C)O)C(=O)N1)[C@@H](C)O)C(=O)N1CCC[C@H]1C(=O)N[C@@H](CO)C(=O)N[C@@H](CO)C(=O)N[C@H](C(=O)N[C@@H](CC(N)=O)C(=O)N[C@H](C(=O)NCC(=O)N1CCC[C@H]1C(=O)N[C@@H](CC(N)=O)C(=O)N[C@H](C(=O)N[C@@H](Cc1ccc(O)cc1)C(N)=O)[C@@H](C)O)C(C)C)[C@@H](C)O
notes: also called compound 65

- hCTR funct. EC50: 16.8 nM
B4: N^ε1-[(4S)-4-carboxy-4-(19-carboxynonadecanoylamino)butanoyl]-[Arg14,Arg17,Pro21,Pro27]-h-amylin (peptide)
peptide: K([γGlu-C20 diacid])CNTATCATQRLARFLRHSSPNFGAIPSSTNVGSNTY-NH2
modifications: disulfide 2-7; N-terminus assumed
SMILES: CC[C@H](C)[C@H](NC(=O)[C@H](C)NC(=O)CNC(=O)[C@H](Cc1ccccc1)NC(=O)[C@H](CC(N)=O)NC(=O)[C@@H]1CCCN1C(=O)[C@H](CO)NC(=O)[C@H](CO)NC(=O)[C@H](Cc1c[nH]cn1)NC(=O)[C@H](CCCNC(=N)N)NC(=O)[C@H](CC(C)C)NC(=O)[C@H](Cc1ccccc1)NC(=O)[C@H](CCCNC(=N)N)NC(=O)[C@H](C)NC(=O)[C@H](CC(C)C)NC(=O)[C@H](CCCNC(=N)N)NC(=O)[C@H](CCC(N)=O)NC(=O)[C@@H](NC(=O)[C@H](C)NC(=O)[C@@H]1CSSC[C@H](NC(=O)[C@@H](N)CCCCNC(=O)CC[C@H](NC(=O)CCCCCCCCCCCCCCCCCCC(=O)O)C(=O)O)C(=O)N[C@@H](CC(N)=O)C(=O)N[C@@H]([C@@H](C)O)C(=O)N[C@@H](C)C(=O)N[C@@H]([C@@H](C)O)C(=O)N1)[C@@H](C)O)C(=O)N1CCC[C@H]1C(=O)N[C@@H](CO)C(=O)N[C@@H](CO)C(=O)N[C@H](C(=O)N[C@@H](CC(N)=O)C(=O)N[C@H](C(=O)NCC(=O)N[C@@H](CO)C(=O)N[C@@H](CC(N)=O)C(=O)N[C@H](C(=O)N[C@@H](Cc1ccc(O)cc1)C(N)=O)[C@@H](C)O)C(C)C)[C@@H](C)O
notes: also called compound 83

Second part, the binder before the results:

B1: N^ε1-[2-[2-[2-[[(4S)-4-carboxy-4-(19-carboxynonadecanoylamino)butanoyl]amino]ethoxy]ethoxy]acetyl]-[Ser14,Arg17,Pro21,Pro27,Pro31]-h-amylin (peptide)
peptide: K([AEEA-γGlu-C20 diacid])CNTATCATQRLASFLRHSSPNFGAIPSSTPVGSNTY-NH2
modifications: disulfide 2-7; N-terminus assumed
SMILES: CC[C@H](C)[C@H](NC(=O)[C@H](C)NC(=O)CNC(=O)[C@H](Cc1ccccc1)NC(=O)[C@H](CC(N)=O)NC(=O)[C@@H]1CCCN1C(=O)[C@H](CO)NC(=O)[C@H](CO)NC(=O)[C@H](Cc1c[nH]cn1)NC(=O)[C@H](CCCNC(=N)N)NC(=O)[C@H](CC(C)C)NC(=O)[C@H](Cc1ccccc1)NC(=O)[C@H](CO)NC(=O)[C@H](C)NC(=O)[C@H](CC(C)C)NC(=O)[C@H](CCCNC(=N)N)NC(=O)[C@H](CCC(N)=O)NC(=O)[C@@H](NC(=O)[C@H](C)NC(=O)[C@@H]1CSSC[C@H](NC(=O)[C@@H](N)CCCCNC(=O)COCCOCCNC(=O)CC[C@H](NC(=O)CCCCCCCCCCCCCCCCCCC(=O)O)C(=O)O)C(=O)N[C@@H](CC(N)=O)C(=O)N[C@@H]([C@@H](C)O)C(=O)N[C@@H](C)C(=O)N[C@@H]([C@@H](C)O)C(=O)N1)[C@@H](C)O)C(=O)N1CCC[C@H]1C(=O)N[C@@H](CO)C(=O)N[C@@H](CO)C(=O)N[C@H](C(=O)N1CCC[C@H]1C(=O)N[C@H](C(=O)NCC(=O)N[C@@H](CO)C(=O)N[C@@H](CC(N)=O)C(=O)N[C@H](C(=O)N[C@@H](Cc1ccc(O)cc1)C(N)=O)[C@@H](C)O)C(C)C)[C@@H](C)O
notes: also called compound 73
- hCTR funct. EC50: 0.961 nM

B2: N^ε1-[2-[2-[2-[[(4S)-4-carboxy-4-(19-carboxynonadecanoylamino)butanoyl]amino]ethoxy]ethoxy]acetyl]-[Thr14,Arg17,Pro21,Pro27,Pro31]-h-amylin (peptide)
peptide: K([AEEA-γGlu-C20 diacid])CNTATCATQRLATFLRHSSPNFGAIPSSTPVGSNTY-NH2
modifications: disulfide 2-7; N-terminus assumed
SMILES: CC[C@H](C)[C@H](NC(=O)[C@H](C)NC(=O)CNC(=O)[C@H](Cc1ccccc1)NC(=O)[C@H](CC(N)=O)NC(=O)[C@@H]1CCCN1C(=O)[C@H](CO)NC(=O)[C@H](CO)NC(=O)[C@H](Cc1c[nH]cn1)NC(=O)[C@H](CCCNC(=N)N)NC(=O)[C@H](CC(C)C)NC(=O)[C@H](Cc1ccccc1)NC(=O)[C@@H](NC(=O)[C@H](C)NC(=O)[C@H](CC(C)C)NC(=O)[C@H](CCCNC(=N)N)NC(=O)[C@H](CCC(N)=O)NC(=O)[C@@H](NC(=O)[C@H](C)NC(=O)[C@@H]1CSSC[C@H](NC(=O)[C@@H](N)CCCCNC(=O)COCCOCCNC(=O)CC[C@H](NC(=O)CCCCCCCCCCCCCCCCCCC(=O)O)C(=O)O)C(=O)N[C@@H](CC(N)=O)C(=O)N[C@@H]([C@@H](C)O)C(=O)N[C@@H](C)C(=O)N[C@@H]([C@@H](C)O)C(=O)N1)[C@@H](C)O)[C@@H](C)O)C(=O)N1CCC[C@H]1C(=O)N[C@@H](CO)C(=O)N[C@@H](CO)C(=O)N[C@H](C(=O)N1CCC[C@H]1C(=O)N[C@H](C(=O)NCC(=O)N[C@@H](CO)C(=O)N[C@@H](CC(N)=O)C(=O)N[C@H](C(=O)N[C@@H](Cc1ccc(O)cc1)C(N)=O)[C@@H](C)O)C(C)C)[C@@H](C)O
notes: also called compound 75
- hCTR funct. EC50: 9.07 nM

B5: N^ε1-[(4S)-4-carboxy-4-(19-carboxynonadecanoylamino)butanoyl]-[Ala14,Arg17,Pro21,Pro27,His34]-h-amylin (peptide)
peptide: K([γGlu-C20 diacid])CNTATCATQRLAAFLRHSSPNFGAIPSSTNVGHNTY-NH2
modifications: disulfide 2-7; N-terminus assumed
SMILES: CC[C@H](C)[C@H](NC(=O)[C@H](C)NC(=O)CNC(=O)[C@H](Cc1ccccc1)NC(=O)[C@H](CC(N)=O)NC(=O)[C@@H]1CCCN1C(=O)[C@H](CO)NC(=O)[C@H](CO)NC(=O)[C@H](Cc1c[nH]cn1)NC(=O)[C@H](CCCNC(=N)N)NC(=O)[C@H](CC(C)C)NC(=O)[C@H](Cc1ccccc1)NC(=O)[C@H](C)NC(=O)[C@H](C)NC(=O)[C@H](CC(C)C)NC(=O)[C@H](CCCNC(=N)N)NC(=O)[C@H](CCC(N)=O)NC(=O)[C@@H](NC(=O)[C@H](C)NC(=O)[C@@H]1CSSC[C@H](NC(=O)[C@@H](N)CCCCNC(=O)CC[C@H](NC(=O)CCCCCCCCCCCCCCCCCCC(=O)O)C(=O)O)C(=O)N[C@@H](CC(N)=O)C(=O)N[C@@H]([C@@H](C)O)C(=O)N[C@@H](C)C(=O)N[C@@H]([C@@H](C)O)C(=O)N1)[C@@H](C)O)C(=O)N1CCC[C@H]1C(=O)N[C@@H](CO)C(=O)N[C@@H](CO)C(=O)N[C@H](C(=O)N[C@@H](CC(N)=O)C(=O)N[C@H](C(=O)NCC(=O)N[C@@H](Cc1c[nH]cn1)C(=O)N[C@@H](CC(N)=O)C(=O)N[C@H](C(=O)N[C@@H](Cc1ccc(O)cc1)C(N)=O)[C@@H](C)O)C(C)C)[C@@H](C)O
notes: also called compound 93
- hCTR funct. EC50: 1.15 nM

B6: N^ε1-[(4S)-4-carboxy-4-(19-carboxynonadecanoylamino)butanoyl]-[Arg14,Arg17,Pro21,Pro27,Pro31]-h-amylin (peptide)
peptide: K([γGlu-C20 diacid])CNTATCATQRLARFLRHSSPNFGAIPSSTPVGSNTY-NH2
modifications: disulfide 2-7; N-terminus assumed
SMILES: CC[C@H](C)[C@H](NC(=O)[C@H](C)NC(=O)CNC(=O)[C@H](Cc1ccccc1)NC(=O)[C@H](CC(N)=O)NC(=O)[C@@H]1CCCN1C(=O)[C@H](CO)NC(=O)[C@H](CO)NC(=O)[C@H](Cc1c[nH]cn1)NC(=O)[C@H](CCCNC(=N)N)NC(=O)[C@H](CC(C)C)NC(=O)[C@H](Cc1ccccc1)NC(=O)[C@H](CCCNC(=N)N)NC(=O)[C@H](C)NC(=O)[C@H](CC(C)C)NC(=O)[C@H](CCCNC(=N)N)NC(=O)[C@H](CCC(N)=O)NC(=O)[C@@H](NC(=O)[C@H](C)NC(=O)[C@@H]1CSSC[C@H](NC(=O)[C@@H](N)CCCCNC(=O)CC[C@H](NC(=O)CCCCCCCCCCCCCCCCCCC(=O)O)C(=O)O)C(=O)N[C@@H](CC(N)=O)C(=O)N[C@@H]([C@@H](C)O)C(=O)N[C@@H](C)C(=O)N[C@@H]([C@@H](C)O)C(=O)N1)[C@@H](C)O)C(=O)N1CCC[C@H]1C(=O)N[C@@H](CO)C(=O)N[C@@H](CO)C(=O)N[C@H](C(=O)N1CCC[C@H]1C(=O)N[C@H](C(=O)NCC(=O)N[C@@H](CO)C(=O)N[C@@H](CC(N)=O)C(=O)N[C@H](C(=O)N[C@@H](Cc1ccc(O)cc1)C(N)=O)[C@@H](C)O)C(C)C)[C@@H](C)O
notes: also called compound 63
- hCTR funct. EC50: 5.13 nM

— patent US20140087995A1 (published 2014)
